Data: a protein production outcome set (Wang et al. 2014)

Assay: label from the status in PepcDB records

Sequence | protein production
MLIINGKIIPIAHTICAFSAFFAALVTGYSLHFHKIVTNAHYTYPDEWFPSVSATIGDRYPERSIFQILIALTAFPRFLLLLGHYYLNQSKVCFLVGVLRTVSCGGWVYITSTDDHDIHDIFMITYIVLTLPWDIMITRYSSPLTSKNKGLTATIFFGTLFPMIYWYIQHSVQQRAGAYSIYAYFEWSLILLDIAFDAFAYADFKKIDIVLAFNEKPGNTSFFQIRDSSPINYGEEKSSELQKSGEKKVEKEKPVARSATGSYFRFDSFFYLLTNIFNGFLFWSNVTSLLCSIWHFPLWYMGISGYEAAILGYLGPIFLYLPFVSEAFTQYGVLLGGIIAIGAYIVQMPELRLISVAVGTSITVATFVQNLRYITNAETSFSFALTWLLGLVASVILKMGFYTNNPTWVILDERNGGYNKTALVLTVLFGMLSPYVNSINFEGKRNAQAKSASLIGKLFLAVGFGSLLFGIHQLLTDSSTTIYWAWEGYNESHGPLPWPWGALTCTVMLFASLSSVKFMGKPLVPCLLLLISTAVLSARSITQWPKYIFGGLLYAIAMLWLVPSYFSALGQVQNIWVYVLSFSVYIIFVLAHVWVVAYAFVPMGWVLREKIETVLAFSSTFIIIGALTCKNLNIQLVTMGKKFFIYVFFFAVALLSLTARFVYDIRPTGIPQPYHPDSQLITAGIWTIHFGLDNDMWASEDRMINLIKDMELDVVGLLETDTQRITMGNRDLTSKLAHDLNMYADFGPGPNKHTWGCVLLSKFPIVNSTHHLLPSPVGELAPAIHATLQTYNDTLVDVFVFHSGQEEDEEDRRLQSNYMAKLMGNTTRPAILLSYLVVDPGEGNYNTYVSETSGMHDIDPSDDDRWCEYILYRGLRRTGYARVARGTITDTELQVGKFQVLSEQALVEHSDSMYEYGHMSEPEYEDMKFPDKFLGEGERGHFYHVFDEPRYYL | failed
MLIKLRKQKQDENISFFSHFFAVFTGIFFVMTVIIIQVMHFGIYSSVDNSLKIATENVNDYVNMTLSHNNPITEAENGDASFKVKSNGQMAANTDTILYDKKHNVINNVNAFSSLYHIRPKLKDIGDIVEQEAKNIYGQTEKYRTVTVKVNNDFYPQIKFATIVINTTQLEEANTRYVTIIISVMIVFWLISVIASVYLAKWSQKPILENYEKQKSFVENASHELRTPLAVLQNRLESLFRKPEATILDSSESIASSLEEVRNMRMLTANLLNLARRDDGIKPEITEIQPRFFDDTFKNYEMIARENGKKLHIINKVNRQIKTDKTLLKQLMTILFDNAVKYTDNDGEIWLDVKTTDRSLIFSVADNGQGISDEDKKKIFDRFYRVDKARTRQKGGFGLGLSLAKQITDSLKGSIIVKDKKPQGVMFEARLLANK | failed
MLILAIPGYIYYHQQQEQAANQQLGQILPVYEQGNFQQALDGTGDRAGLLAIADDYGGTDAGNLATFYAANALYQRDEYDRALTYYQRFEKEKDFIGASAYAAQAAIQETRGSFERAGGLYEQAASQYQNKLTAPRYLLNAGQAYEEAGQYEAAIGVYERIQEEYPDSEQASNAERYLARAKVHQGSTSSS | failed
MLIRRKIMQYNDMSKEELLVLKESLNKEYAEAKAKGLALDMSRGKPSAKQLDVSLGLLDTINSSSDLKSLDGTDCRNYGVLDGIPEAKKLMADMMGTTPDHVIVYGNASLNIMYDQISRAYTHGILGNTPWCKLDKVKFLCPVPGYDRHFAITERFGIEMINIPMSESGPDMGMVEEYVSKDASVKGIWCVPKYSNPQGYTYSEETVKRMAALKPAAEDFRIFWDNAYVIHDLYDDNKDEIADIISECEKAGNPDMVFEFASTSKVSFPGSGIAALATSANNIADIKKQLTIQTIGHDKLNQLRHVRFFKDINGLKEHMRKHAEFIRPKFEAVESVLEEELSGLGIGSWTEPKGGYFISFDAMDGCAKAIVAKCKEAGVKLTGAGATFPYGKDPKDSNIRIAPSFPTPEEMKQAADLFVLCVKLVSVEKLLENK | failed
MLITLPYFLTRKTLPGYIIGGDTLVHAAIARGIYLGRNPFLDQTYNVYPSWYPFLYHLIVAVTSKVFQISIEGAMLLLQATLAILGCIVFFYVAKNLWGSTAGIMAMAFSLMFLPFHRYPNPKELIPIFGALFILYFVKERWVLSGIILGLGLWSHYASMFPLFVLPLTVYIFTRRKEVITPLLISTIVFLPFAINIISHADHIIPKVEDIYAFWKTDTLEKKLLSLLPPIYLVPFLLLSLYKFYKRRDYEGTVLFLSVVTIWGLRLLPESLKPFGIQIWSTRFTVPLPTIYLLLSAYGISEIKITSKDIKTIFLGILLFLIPIASALNFWEAIKRDPFIWVSEFELKEYFPEEHFIEVSEWIKANTERDNLIATSEEAGMMINALTGRPIMATLYGHGNTFLDNEIRRKDLELLFTADCKEKAKIISKYKIKYIVLDTFVYKRWEVKDMSCIAEPVYKVENVTILRVNLNITYTNKGEIRMNKKLFWLLLIAFVVNFSVIYGRKNPCWRKWRRYDNSHGHD | failed
MLIVGLNGSPKKDGNTAFLVREGLAAAAAAGAETALIHIADAMADQKIPYCTQCSNPCQGACSRHNRLGEAFDLLRRADGLLLGSPVYFGSVSAQLKAFWDKSRILRKEKALLNVVGAGVTVGGARFGGQETTMKALFDMMLVQGMILVGDGHTEADCGHQGSCGQAPASSDEFAIRRVRLAGRRLAEVAAATMTLRRHRA | failed
MLIVNREEYSKSDFDLRLQAYEEMEQFQEAAGNRFALCLKDPFDIITLVFFLKEKKSSVLLIHEDTPKETAIEMAKRANCIGILYGENSDFTKLEAVNYLAEEPSLLQYSSGTTGEPKLIRRAWTEVDTEIKVYNEALNCDIDEVPIVMAPVSHSYGLICGTLSAITRGSKPIIITNKNPKFALNIVRNTEKHIVYAVPLMLHIMGSFPQGTFQFHKIMTSGAPLPEALFYKLKETTTYMMQQYGCSEAGCISICHDMKSHLDLGNPLPHASISIGSDENAPEEIIVKMNDKEIFTKDLGYKSERGLHFMGRMDDVINVSGLKVFPIEVEETMLRLEGVQEAIVYRGKHPVMGEIVKAKVISHIDPVQIREWCMQHLPSYKVPHEIESVTEIPKNKTGKVSRKLLEMGEVTT | failed
MLKDQANQLEFPRDFLGISLADQPNKYYFIIRTQRIVLEADSSIQLIMEKLQSYKSKVALYFDGFQYQLGDFRLRVGKVVPTHSENVRGIVMEVEYLPISSMEKAQKVMEEFLEIWNEALAKRSLPGKFVNIDLNFGEFGLGDIYTPQHTAVRYALVMAHMIATVQAVRG | failed
MLKIKILIIIFCCIGVVKAQTVIPPSSETPPGWIYYDGDEFNGDVIDSRYWGIYGSPKVGRPTYNQENKAMLQTYRPEQVFIETLPTGEKICRIRSFKSKDAPSPVHPSVKSKTGWWSGALSSRDSDTEKYYPLFCRIEIKAKVPYLYGLWNALWLRHYKGAGVAEIDILEFFTKAFGENPYPAKANQTLHLFNSETQKLGINLPKGQIRYTEIGDDKPGDNFHVYAVQIDPDPVDNNHAIITFLIDNKVNYQIHTRTQLGDAYTDFITKARKEDRLDRVWDIAITGQVGAFDKLDVGYPAEELQQFDFDIDWIRVYVRDPHTRIVGNSKLPHTPEADSFVKDLLSRMTVEEKIGQLSQYVGRTLLTGPESEYLSDSLIARGLVGSVLNISGAKTLRDLQEKNMRHSRIKIPILFGMDVIHGYKTIFPTPLAESCSWDLAAIERAAKIAAIESSAAGLHWTFAPMVDIARDARWGRVVEGAGEDTYLGSEIAKARVNGFQWNLWENNSVLACAKHWVAYGLPQAGRDYAPVDMSERTLFDTYLPPFKACIDAGVLTFMSAFNDINGIPASAHPFLLKDLLRGQWNFNGFVVSDWEAVKQLVAQGVAEDDKDATRLAFNSGIDMDMTDGLYNKYMKELIEAGKISMEDVDNSVSRILHIKYALGLFVDPYKFCNEEYESQTIMKKEFLDAALDMAHKSAVLLKNDNHTLPLAKNVRSIAVVGPLADNQTELLGSWRARGEDRHVTTVLQGIKNKIGGNKTKVGYARGCDFDGEDKSGFKEAVKLASKSDMVIAVVGEKALMSGESRSRAQLDLPGVQEELIKELVATGKPVVVVLMNGRPLSIEWVDKNVSAILETWFLGTSAGTAIADILFGDYNPSGRLTISFPRVEGQVPIYYNYKKSGRPGDMLHSSTTRHIDVPNAPLYPFGYGLSYTTFSYSAPQSTQKEYTRQETISVSVTVTNTGDRDGEETVQLYVNDKVASVVRPVKELKAFKKIFLKAGESKTVQFDISPLALGFYDAAMNYVVEPGEFEIMTGCNSNDLQTISVKLIN | failed
MLKKGNEMKAVIVYASVHHGNTKKIEEAMASVISADVIDVTRKIKPDLSGYDVIGFVSGVYFHTFHEGIKKCIEENMSSKGQKVFLVATCGLGYRDYTKGMKDTLAKKDVLCMGSFQCRGWDTYGIFGKIGGIAKKHPNDRDLKEAQEFVLKTVCKTNLEHHHHHH | not failed
